In this assay the target is 6XHIS-tagged Dbp2 (S. cerevisiae, UniProt P24783 1-546). Description: pull-down.
Chain of 6XHIS-tagged Dbp2 (P24783 whole entry): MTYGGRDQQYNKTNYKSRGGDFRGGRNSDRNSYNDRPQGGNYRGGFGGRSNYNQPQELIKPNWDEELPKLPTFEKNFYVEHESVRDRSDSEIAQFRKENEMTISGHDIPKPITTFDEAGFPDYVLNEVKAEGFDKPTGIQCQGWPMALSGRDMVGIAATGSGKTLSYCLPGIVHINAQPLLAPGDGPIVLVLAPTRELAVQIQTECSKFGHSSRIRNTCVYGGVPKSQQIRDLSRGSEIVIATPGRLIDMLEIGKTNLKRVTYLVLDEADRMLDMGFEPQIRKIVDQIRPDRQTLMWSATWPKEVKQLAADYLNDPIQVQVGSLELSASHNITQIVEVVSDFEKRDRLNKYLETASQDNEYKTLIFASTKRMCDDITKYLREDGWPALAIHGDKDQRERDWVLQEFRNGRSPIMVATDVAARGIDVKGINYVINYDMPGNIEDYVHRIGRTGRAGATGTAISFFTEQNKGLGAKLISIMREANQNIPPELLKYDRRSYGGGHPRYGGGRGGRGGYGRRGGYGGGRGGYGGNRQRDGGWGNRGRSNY

B1: GST-tagged Yra1 (full length) (natural protein, S. cerevisiae, UniProt Q12159 1-226, looked up)
chain: MSANLDKSLDEIIGSNKAGSNRARVGGTRGNGPRRVGKQVGSQRRSLPNRRGPIRKNTRAPPNAVARVAKLLDTTREVKVNVEGLPRDIKQDAVREFFASQVGGVQRVLLSYNERGQSTGMANITFKNGELARRAVERFNGSPIDGGRSRLRLNLIVDPNQRPVKSLADRIKAMPQKGGNAPRPVKRGPNRKAAMAKSQNKPKREKPAKKSLEDLDKEMADYFEKK
In the case of B1, the binding result is “binds”.

B2: GST-Yra1 C (domain or fragment, S. cerevisiae, UniProt Q12159 124-226, looked up)
chain: ITFKNGELARRAVERFNGSPIDGGRSRLRLNLIVDPNQRPVKSLADRIKAMPQKGGNAPRPVKRGPNRKAAMAKSQNKPKREKPAKKSLEDLDKEMADYFEKK
Regarding B2, the binding result is given as “binds”.

Source of the values: paper PMC3795964 (Journal of molecular biology, 2013).
